# T1: GST-rCtrA (Ehrlichia chaffeensis), ORF:1c7d897d
# T1 sequence: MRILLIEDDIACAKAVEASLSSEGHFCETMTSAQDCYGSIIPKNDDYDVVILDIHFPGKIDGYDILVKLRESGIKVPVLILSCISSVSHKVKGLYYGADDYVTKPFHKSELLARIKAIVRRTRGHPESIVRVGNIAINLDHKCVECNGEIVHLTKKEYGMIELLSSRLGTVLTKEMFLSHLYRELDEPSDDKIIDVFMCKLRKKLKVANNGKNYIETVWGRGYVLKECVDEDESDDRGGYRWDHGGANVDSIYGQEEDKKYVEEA
# Experiments:
# NCC(=O)O = assay: inorganic phosphate formation, ascorbic acid-molybdate, OD750; type: biochemical, Ehrlichia chaffeensis; conditions: 10 mM Na3ATP, 5 mM gamma-glutamylcysteine, 20 mM MgCl2, 50 mM KCl, 2 mM EDTA, 2.5 mM DTT, 100 mM Tris-HCl pH 8.2, 37°C, 30 min
# Text: inorganic phosphate formation, ascorbic acid-molybdate, OD750 on rGshB (E. chaffeensis GshB)
# [1] = tested on: T1, GST-rCtrA (Ehrlichia chaffeensis), ORF:1c7d897d; assay: EMSA
# [2] = substrate: N[C@@H](CCC(=O)O)C(=O)O; assay: inorganic phosphate formation, ascorbic acid-molybdate, OD750; type: biochemical, Ehrlichia chaffeensis; conditions: 5 mM ATP, 10 mM L-alpha-aminobutyric acid, 20 mM MgCl2, 50 mM KCl, 2 mM EDTA, 100 mM Tris-HCl pH 8.0, 37°C, 30 min
# Text: inorganic phosphate formation, ascorbic acid-molybdate, OD750 on SUMO-rGshA (E. chaffeensis GshA)
molecule,measurement,setting,value
rGshB (E. chaffeensis GshB) (Ehrlichia chaffeensis str. Arkansas),Km,NCC(=O)O,940 ± 320 µM
same,Vmax,NCC(=O)O,0.63 µmol/min/mg
"ATATAACCTAATAGTGACAAATAAATTAACAATAGTAGAAGTGTCATATAAAAGCAAGTCAGAATATAAATTTTTGTATAAAATATCGGTAACTTTTGTAAGGAAAATTTAATATATTACGTCAGGTAAGTAATAGCAAAAAAACTGGTTAAGTATAGTATCATGTGTAAAGGTGAGAAAAACAGCACTTATAAACTAGTCCCCCCCCCCCCCCTCTTATTGCTACATTCTTTTGCCACTATTTTTATTTACCTGCAGCA (double strand) [p28 promoter probe, 260 bp]",binding,[1],no binding
"SUMO-rGshA (E. chaffeensis GshA) (Ehrlichia chaffeensis str. Arkansas) (protein, tag kept) MTVIIDTLNDILTKYKLDIENWFFNKFTKYNPVLNISVDLRVSDYKIAPVDTNIFPAGYNNFTEQSQIYASRLLREYVVNYANCSKILIIAENHTRNLKYIDSLIVLKNIVNNAGFVVEVGICNINQNIELISSTGRVINCLCLTNDNGVLRAGCRFIPDLILVNNDMTSGIPEVLQGLKYQSIMPSLFLGWFNRSKSNHFSIYKKLSKEFCESFNIDPWLISAFFSSCSNICFFNSQGIDDIANEVDVVISKIRNKFQLYSIKEQPYVFVKADNGTYGMGILVAYCGDDILMLNRKKRNKMKKIKDGNVVSSVIIQEGITTREIFNGYVAEPLVYFIGHTPSCYLYRYHSVKDRFSNLNSVGCDFIDISYKQQDILYWNIIGKIAVLAAAIEMHEISNVNVMEQNCLLS",Km,[2],1030 ± 20 µM
same,Vmax,[2],0.52 µmol/min/mg
